The source of these data is publication PMC10003157, “Structurally Different Yet Functionally Similar: Aptamers Specific for the Ebola Virus Soluble Glycoprotein and GP1,2 and Their Application in Electrochemical Sensing”.

The target of data set [1] is T1, SUDV sGP (Sudan virus (SUDV), UniProt Q7T9E0 33-324).
T1 sequence: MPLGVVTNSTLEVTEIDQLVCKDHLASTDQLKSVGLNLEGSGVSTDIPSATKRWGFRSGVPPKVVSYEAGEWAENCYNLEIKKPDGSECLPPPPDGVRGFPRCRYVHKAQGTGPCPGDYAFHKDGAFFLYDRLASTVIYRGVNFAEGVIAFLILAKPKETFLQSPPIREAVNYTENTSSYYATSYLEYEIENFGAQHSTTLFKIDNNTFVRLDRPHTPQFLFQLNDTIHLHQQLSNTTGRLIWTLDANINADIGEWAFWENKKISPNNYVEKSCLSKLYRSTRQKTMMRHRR
The data set is described as follows: filter binding. As to conditions: protein: commercial; chain copies: 2; label: 5' 32P.

The target in data set [2] is T2, EBOV sGP (Zaire ebolavirus (EBOV), UniProt P60170). The data set is described as follows: filter binding. The note with it: protein: recombinant; tags: C-terminal thrombin site + 6xHis; chain copies: 2; label: 5' 32P.
The target in the next data set is NGAL (human, UniProt P80188 21-198). Put plainly: filter binding; with or without 10 mM DTT, no effect; NBB buffer. As to conditions: protein: recombinant; label: 32P.
Another data set has as its target T3, His-Lcn2 (mouse, UniProt P11672 21-200).
T3 sequence: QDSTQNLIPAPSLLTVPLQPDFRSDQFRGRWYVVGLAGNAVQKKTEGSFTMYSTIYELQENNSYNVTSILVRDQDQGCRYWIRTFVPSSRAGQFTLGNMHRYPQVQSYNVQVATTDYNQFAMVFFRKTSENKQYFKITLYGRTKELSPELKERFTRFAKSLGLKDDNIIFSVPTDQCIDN
The data set is described as follows: filter binding; Nitrocellulose filter capture in PBS at 23-24 C (NA53 in NBB); EIS sensor in PBS with or without 10% serum. The note with it: protein: recombinant; tags: His; label: 5' 32P.

Data set [3] deals with T2, EBOV sGP. The data set is described as follows: electrochemical impedance (NAAO sensor); 10% human serum. As to conditions: protein: recombinant; tags: C-terminal thrombin site + 6xHis; chain copies: 2.
Data set [4] concerns the target T1, SUDV sGP. Put plainly: electrochemical impedance (NAAO sensor); PBS; same affinity as EBOV sGP. As to conditions: protein: commercial; chain copies: 2.

One may read the Kd as a measure of binding affinity in units of concentration.

B1: 6012 (ssDNA)
DNA: GCCTGTTGTGAGCCTCCTGTCGAACGTATTTCTTGCTTCCTTCCTTGCCGCGCACATTGCAGTATAAGTACCTGTCGTTGAGCGTTTATTCTTGTCTCCC
With B1, the Kd with SUDV sGP [1] came out at 151 ± 44 nM; with EBOV sGP [2], 27 ± 12 nM.

B2: 70SGP2A (ssDNA)
DNA: GCCTGTTGTGAGCCTCCTGTCGAACAACCACTCATATCTACTACATGACTTGCTCCATTCTGTTCTTTCT
Turning to B2, the Kd with EBOV sGP [2] turned out to be 27 ± 15 nM.

B3: 6020 (ssDNA)
DNA: GCCTGTTGTGAGCCTCCTGTCGAACATACCGTTCCACCCACATTTCAACCTTCATCCATCCTATTATTAGCCCACTCTTGAGCGTTTATTCTTGTCTCCC
As to B3, in the data set with EBOV sGP [2], the binding result is reported as “no binding”.

B4: NA53 (ssDNA)
DNA: AGCAGCACAGAGGTCAGATGCCGTGCGGATGTACAGGGACTTGGATAGTTTCTGACCTATGCGTGCTACCGTGAA
Regarding B4, in the data set with NGAL, the binding result is on record as “binds”.

B5: 6022 (ssDNA)
DNA: GCCTGTTGTGAGCCTCCTGTCGAACCCTATCTTGTTCATGCTATTCTCAATATTTTCGGTTCACTTACCGTCTGCCTTTGAGCGTTTATTCTTGTCTCCC
Take B5: the Kd with EBOV sGP [2] is ~23 nM.

B6: 6011 (ssDNA)
DNA: GCCTGTTGTGAGCCTCCTGTCGAACAACCACTCATATCTACTACATGACTTGCTCCATTCTGTTCTTTCTCTACGCATTGAGCGTTTATTCTTGTCTCCC
Regarding B6, the figures for the Kd with SUDV sGP [1] and with EBOV sGP [2] were 165 ± 44 nM and 8.5 ± 3.2 nM, respectively. The binding result in the data set with His-Lcn2 is “no binding”.

B7: 5'thio-6011 (ssDNA)
DNA: B6 DNA
modifications: 5' thiol
As to B7, the dissociation constant Kd with EBOV sGP [3] worked out at 2.2 ± 0.75 nM. Also, in the data set with SUDV sGP [4], the binding result is “binds”.
